Reference: publication PMC11077064, “The origin recognition complex requires chromatin tethering by a hypervariable intrinsically disordered region that is functionally conserved from sponge to man”
Several values for one entry are separate records, joined by “and”; a condition that tells them apart may be missing. Equal values may be shown once.

T1: DmOrc1 IDR (Drosophila melanogaster, UniProt O16810 187-549)
T1 sequence: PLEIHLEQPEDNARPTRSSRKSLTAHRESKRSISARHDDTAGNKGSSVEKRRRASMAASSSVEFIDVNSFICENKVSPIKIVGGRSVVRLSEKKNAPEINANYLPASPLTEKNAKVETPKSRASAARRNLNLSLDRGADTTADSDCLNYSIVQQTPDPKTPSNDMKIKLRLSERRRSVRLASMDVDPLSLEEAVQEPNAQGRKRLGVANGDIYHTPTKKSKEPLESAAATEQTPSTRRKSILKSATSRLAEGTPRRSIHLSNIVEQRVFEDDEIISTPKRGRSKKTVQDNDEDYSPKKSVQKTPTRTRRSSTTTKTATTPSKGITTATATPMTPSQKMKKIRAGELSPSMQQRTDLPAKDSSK

T2: DmOrc1 IDR delta P (Drosophila melanogaster, UniProt O16810 187-549, S263A;S293A;T304A;T341A;T346A;T401A;T419A;T439A;T463A;S481A;T489A;T505A;T516A;T5 …)
T2 sequence: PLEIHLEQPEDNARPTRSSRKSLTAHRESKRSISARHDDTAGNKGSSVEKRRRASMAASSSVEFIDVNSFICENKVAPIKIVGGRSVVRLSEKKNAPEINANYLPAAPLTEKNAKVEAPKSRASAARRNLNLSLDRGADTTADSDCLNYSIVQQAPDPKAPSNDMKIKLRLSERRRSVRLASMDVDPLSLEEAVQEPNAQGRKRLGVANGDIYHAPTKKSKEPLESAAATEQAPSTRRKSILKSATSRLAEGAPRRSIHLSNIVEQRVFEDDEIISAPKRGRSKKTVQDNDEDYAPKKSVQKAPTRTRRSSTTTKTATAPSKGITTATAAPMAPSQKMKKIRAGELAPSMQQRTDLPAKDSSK

T3: DmOrc1 IDR delta BP (Drosophila melanogaster, UniProt O16810 187-549, del520-533)
T3 sequence: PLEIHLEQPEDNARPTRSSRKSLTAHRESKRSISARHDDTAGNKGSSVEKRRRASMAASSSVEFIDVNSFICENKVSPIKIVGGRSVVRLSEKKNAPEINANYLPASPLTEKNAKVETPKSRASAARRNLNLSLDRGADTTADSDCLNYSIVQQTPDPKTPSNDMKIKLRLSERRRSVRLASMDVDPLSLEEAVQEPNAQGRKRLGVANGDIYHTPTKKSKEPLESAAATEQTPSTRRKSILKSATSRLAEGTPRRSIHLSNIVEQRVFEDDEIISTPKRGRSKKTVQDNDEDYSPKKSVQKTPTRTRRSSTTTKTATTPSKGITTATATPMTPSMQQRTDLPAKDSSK

T4: DmOrc1 IDR delta3 (Drosophila melanogaster, UniProt O16810 187-549, del307-366)
T4 sequence: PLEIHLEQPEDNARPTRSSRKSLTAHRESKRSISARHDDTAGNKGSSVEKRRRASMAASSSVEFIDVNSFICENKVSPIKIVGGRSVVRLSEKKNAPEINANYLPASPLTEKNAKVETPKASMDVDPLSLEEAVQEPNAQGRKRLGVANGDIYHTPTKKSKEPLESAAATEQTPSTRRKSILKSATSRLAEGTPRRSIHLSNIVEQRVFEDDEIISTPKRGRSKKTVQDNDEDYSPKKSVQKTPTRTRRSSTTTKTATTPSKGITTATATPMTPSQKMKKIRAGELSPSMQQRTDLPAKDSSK

T5: DmOrc1 IDR delta5 (Drosophila melanogaster, UniProt O16810 187-549, del427-486)
T5 sequence: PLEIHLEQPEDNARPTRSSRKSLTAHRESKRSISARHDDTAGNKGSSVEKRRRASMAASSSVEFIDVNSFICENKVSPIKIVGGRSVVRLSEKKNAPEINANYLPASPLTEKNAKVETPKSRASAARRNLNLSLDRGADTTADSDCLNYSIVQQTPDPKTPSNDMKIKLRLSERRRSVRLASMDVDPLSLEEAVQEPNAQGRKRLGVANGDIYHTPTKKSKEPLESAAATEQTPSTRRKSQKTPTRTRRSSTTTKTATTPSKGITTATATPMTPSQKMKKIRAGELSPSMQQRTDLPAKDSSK

T6: DmOrc1 IDR delta4 (Drosophila melanogaster, UniProt O16810 187-549, del367-426)
T6 sequence: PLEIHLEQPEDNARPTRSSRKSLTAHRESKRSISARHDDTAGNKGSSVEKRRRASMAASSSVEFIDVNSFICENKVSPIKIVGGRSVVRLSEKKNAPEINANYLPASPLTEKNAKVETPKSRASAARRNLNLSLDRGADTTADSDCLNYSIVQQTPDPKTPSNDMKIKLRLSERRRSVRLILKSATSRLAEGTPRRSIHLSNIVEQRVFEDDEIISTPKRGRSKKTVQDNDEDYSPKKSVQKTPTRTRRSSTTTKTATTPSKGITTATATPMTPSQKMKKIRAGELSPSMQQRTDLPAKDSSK

T7: DmOrc1 IDR delta6 (Drosophila melanogaster, UniProt O16810 187-486, del487-549)
T7 sequence: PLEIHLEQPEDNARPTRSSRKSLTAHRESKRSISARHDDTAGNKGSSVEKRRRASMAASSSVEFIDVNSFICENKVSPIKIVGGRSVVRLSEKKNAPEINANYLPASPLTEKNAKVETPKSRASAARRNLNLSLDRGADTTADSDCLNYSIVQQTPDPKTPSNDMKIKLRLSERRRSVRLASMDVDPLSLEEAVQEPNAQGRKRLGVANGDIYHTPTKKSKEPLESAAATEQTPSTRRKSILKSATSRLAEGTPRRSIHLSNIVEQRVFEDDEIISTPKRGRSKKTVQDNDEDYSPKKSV

T8: DmOrc1 IDR delta2 (Drosophila melanogaster, UniProt O16810 187-549, del247-306)
T8 sequence: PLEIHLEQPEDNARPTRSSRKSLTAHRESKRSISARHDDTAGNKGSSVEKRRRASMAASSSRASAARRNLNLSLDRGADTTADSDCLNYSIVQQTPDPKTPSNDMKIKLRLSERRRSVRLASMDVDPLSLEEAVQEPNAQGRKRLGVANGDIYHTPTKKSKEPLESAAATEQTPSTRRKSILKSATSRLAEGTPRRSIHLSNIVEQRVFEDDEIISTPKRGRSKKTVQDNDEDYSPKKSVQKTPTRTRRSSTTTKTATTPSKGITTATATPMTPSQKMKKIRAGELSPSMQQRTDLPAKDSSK

T9: DmOrc1 IDR delta1 (Drosophila melanogaster, UniProt O16810 247-549, del187-246)
T9 sequence: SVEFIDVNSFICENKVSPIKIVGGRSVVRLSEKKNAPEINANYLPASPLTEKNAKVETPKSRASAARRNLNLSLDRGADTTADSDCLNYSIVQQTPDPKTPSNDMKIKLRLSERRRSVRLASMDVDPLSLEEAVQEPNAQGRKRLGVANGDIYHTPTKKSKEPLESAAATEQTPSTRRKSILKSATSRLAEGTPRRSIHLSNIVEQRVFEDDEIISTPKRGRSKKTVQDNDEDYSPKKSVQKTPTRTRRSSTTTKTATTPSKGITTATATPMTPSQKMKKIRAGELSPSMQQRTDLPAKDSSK

B1: Cy5-dsDNA 60 bp (dsDNA)
DNA 1: GAAGCTAGACTTAGGTGTCATATTGAACCTACTATGCCGAACTAGTTACGAGCTATAACC
DNA 2: GGTTATAGCTCGTAACTAGTTCGGCATAGTAGGTTCAATATGACACCTAAGTCTAGCTTC

Legend:
[1] = target: T10, DmORC holocomplex (Orc1-6) (Drosophila melanogaster) (UniProt O16810+Q24168+Q24169+Q9Y1B2); assay: fluorescence polarization; conditions: EMSA: 50 mM HEPES pH 7.5, 150 mM K-glutamate, 10% glycerol, 1 mM BME, 2 nM DNA, RT 20 min, 1% agarose; FP: same with 150 or 300 mM K-glutamate, 5 mM MgOAc …
[2] = target: DmORC delta1IDR holocomplex Orc1:del248-549 (Drosophila melanogaster) (UniProt O16810+Q24168+Q24169+Q9Y1B2); assay: fluorescence polarization; conditions: EMSA: 50 mM HEPES pH 7.5, 150 mM K-glutamate, 10% glycerol, 1 mM BME, 2 nM DNA, RT 20 min, 1% agarose, FP: same with 150 or 300 mM K-glutamate
[3] = test system: DgOrc1 IDR (Dimorphilus gyrociliatus); assay: fluorescence polarization; conditions: about 100 nM or less; EMSA: 50 mM HEPES pH 7.5, 150 mM K-glutamate, 10% glycerol, 1 mM BME, 2 nM DNA, RT 20 min, 1% agarose; FP: same with 150 or 300 mM K-glutamate, 5 mM MgOAc …
[4] = target: T10, DmORC holocomplex (Orc1-6) (Drosophila melanogaster); assay: fluorescence polarization; conditions: EMSA: 50 mM HEPES pH 7.5, 150 mM K-glutamate, 10% glycerol, 1 mM BME, 2 nM DNA, RT 20 min, 1% agarose; FP: same with 150 or 300 mM K-glutamate, 5 mM MgOAc …; remark: listed apart in the source
[5] = test system: AmOrc1 IDR (Acropora millepora); assay: fluorescence polarization; conditions: about 100 nM or less; EMSA: 50 mM HEPES pH 7.5, 150 mM K-glutamate, 10% glycerol, 1 mM BME, 2 nM DNA, RT 20 min, 1% agarose; FP: same with 150 or 300 mM K-glutamate, 5 mM MgOAc …
[6] = test system: MyOrc1 IDR (Mizuhopecten yessoensis); assay: fluorescence polarization; conditions: about 100 nM or less; EMSA: 50 mM HEPES pH 7.5, 150 mM K-glutamate, 10% glycerol, 1 mM BME, 2 nM DNA, RT 20 min, 1% agarose; FP: same with 150 or 300 mM K-glutamate, 5 mM MgOAc …
[7] = test system: AqOrc1 IDR (Amphimedon queenslandica); assay: fluorescence polarization; conditions: about 100 nM or less; EMSA: 50 mM HEPES pH 7.5, 150 mM K-glutamate, 10% glycerol, 1 mM BME, 2 nM DNA, RT 20 min, 1% agarose; FP: same with 150 or 300 mM K-glutamate, 5 mM MgOAc …
[8] = target: T1, DmOrc1 IDR; assay: EMSA; no ATP; text says FITC, legend Cy5; EMSA: 50 mM HEPES pH 7.5, 150 mM K-glutamate, 10% glycerol, 1 mM BME, 2 nM DNA, RT 20 min, 1% agarose; FP: same with 150 or 300 mM K-glutamate, 5 mM MgOAc, 0 or 1 mM ATP, RT 30 min; conditions: protein: recombinant; tags: His6-MBP removed by TEV; blunt (60-bp duplex)
[9] = target: T1, DmOrc1 IDR; assay: EMSA; unphosphorylated, compared with pOrc1IDR; label not stated; EMSA: 50 mM HEPES pH 7.5, 150 mM K-glutamate, 10% glycerol, 1 mM BME, 2 nM DNA, RT 20 min, 1% agarose; FP: same with 150 or 300 mM K-glutamate, 5 mM MgOAc, 0 or 1 mM ATP, RT 30 min; conditions: protein: recombinant; tags: His6-MBP removed by TEV; blunt (60-bp duplex)
[10] = target: T2, DmOrc1 IDR delta P; assay: EMSA; 600 nM; EMSA: 50 mM HEPES pH 7.5, 150 mM K-glutamate, 10% glycerol, 1 mM BME, 2 nM DNA, RT 20 min, 1% agarose; FP: same with 150 or 300 mM K-glutamate, 5 mM MgOAc, 0 or 1 mM ATP, RT 30 min; conditions: protein: recombinant; blunt (60-bp duplex)
[11] = target: T3, DmOrc1 IDR delta BP; assay: EMSA; text says FITC, legend Cy5; EMSA: 50 mM HEPES pH 7.5, 150 mM K-glutamate, 10% glycerol, 1 mM BME, 2 nM DNA, RT 20 min, 1% agarose; FP: same with 150 or 300 mM K-glutamate, 5 mM MgOAc, 0 or 1 mM ATP, RT 30 min; conditions: protein: recombinant; tags: His6-MBP removed by TEV; blunt (60-bp duplex)
[12] = target: T4, DmOrc1 IDR delta3; assay: EMSA; EMSA: 50 mM HEPES pH 7.5, 150 mM K-glutamate, 10% glycerol, 1 mM BME, 2 nM DNA, RT 20 min, 1% agarose; FP: same with 150 or 300 mM K-glutamate, 5 mM MgOAc, 0 or 1 mM ATP, RT 30 min; conditions: protein: recombinant; tags: His6-MBP removed by TEV; blunt (60-bp duplex)
[13] = target: T5, DmOrc1 IDR delta5; assay: as above; conditions: protein: recombinant; tags: His6-MBP removed by TEV; blunt (60-bp duplex)
[14] = target: T6, DmOrc1 IDR delta4; assay: as above; conditions: protein: recombinant; tags: His6-MBP removed by TEV; blunt (60-bp duplex)
[15] = target: T7, DmOrc1 IDR delta6; assay: as above; conditions: protein: recombinant; tags: His6-MBP removed by TEV; blunt (60-bp duplex)
[16] = target: T8, DmOrc1 IDR delta2; assay: as above; conditions: protein: recombinant; tags: His6-MBP removed by TEV; blunt (60-bp duplex)
[17] = target: T9, DmOrc1 IDR delta1; assay: as above; conditions: protein: recombinant; tags: His6-MBP removed by TEV; blunt (60-bp duplex)

T10 sequence (O16810 whole entry, chain 1 of 4): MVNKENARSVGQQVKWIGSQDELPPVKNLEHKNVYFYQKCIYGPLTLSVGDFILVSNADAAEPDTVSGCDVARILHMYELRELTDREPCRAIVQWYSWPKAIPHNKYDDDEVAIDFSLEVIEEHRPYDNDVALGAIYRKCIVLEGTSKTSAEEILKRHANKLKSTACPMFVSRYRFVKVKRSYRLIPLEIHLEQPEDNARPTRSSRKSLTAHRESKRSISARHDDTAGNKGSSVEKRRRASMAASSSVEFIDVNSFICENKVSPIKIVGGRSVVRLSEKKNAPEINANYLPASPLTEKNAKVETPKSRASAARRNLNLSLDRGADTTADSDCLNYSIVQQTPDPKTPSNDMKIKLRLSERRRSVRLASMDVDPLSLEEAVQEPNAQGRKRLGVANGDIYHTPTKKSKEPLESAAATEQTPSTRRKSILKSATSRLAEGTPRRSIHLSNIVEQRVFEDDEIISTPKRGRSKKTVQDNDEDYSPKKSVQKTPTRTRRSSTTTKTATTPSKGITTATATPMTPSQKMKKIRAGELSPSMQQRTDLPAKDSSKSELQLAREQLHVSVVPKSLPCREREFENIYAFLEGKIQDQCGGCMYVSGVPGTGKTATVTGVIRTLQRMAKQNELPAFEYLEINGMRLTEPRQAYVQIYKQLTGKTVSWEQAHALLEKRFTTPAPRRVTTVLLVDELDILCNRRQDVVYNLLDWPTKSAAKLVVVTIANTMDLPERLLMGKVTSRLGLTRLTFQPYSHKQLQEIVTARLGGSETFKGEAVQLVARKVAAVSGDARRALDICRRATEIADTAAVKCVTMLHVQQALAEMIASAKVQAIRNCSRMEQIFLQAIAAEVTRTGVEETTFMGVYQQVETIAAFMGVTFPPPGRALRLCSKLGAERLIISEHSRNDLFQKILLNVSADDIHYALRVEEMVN
T10 sequence (Q24168 whole entry, chain 2 of 4): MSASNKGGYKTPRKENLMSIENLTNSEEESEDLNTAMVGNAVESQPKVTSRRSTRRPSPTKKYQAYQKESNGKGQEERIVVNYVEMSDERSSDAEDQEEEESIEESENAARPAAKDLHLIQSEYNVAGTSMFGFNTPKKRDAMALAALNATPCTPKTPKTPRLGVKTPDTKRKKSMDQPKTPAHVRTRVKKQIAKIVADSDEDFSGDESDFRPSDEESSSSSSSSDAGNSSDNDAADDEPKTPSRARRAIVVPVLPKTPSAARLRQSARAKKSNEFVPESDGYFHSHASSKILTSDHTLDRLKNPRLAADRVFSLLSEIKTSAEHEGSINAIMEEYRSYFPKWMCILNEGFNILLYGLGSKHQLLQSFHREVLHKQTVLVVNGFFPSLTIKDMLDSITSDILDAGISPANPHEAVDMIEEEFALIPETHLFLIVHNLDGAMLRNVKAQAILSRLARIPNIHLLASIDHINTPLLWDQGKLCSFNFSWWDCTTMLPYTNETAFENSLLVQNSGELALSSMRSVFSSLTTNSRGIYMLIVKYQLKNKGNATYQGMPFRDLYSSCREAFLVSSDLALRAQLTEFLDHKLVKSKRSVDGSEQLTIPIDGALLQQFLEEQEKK
T10 sequence (Q24169 whole entry, chain 3 of 4): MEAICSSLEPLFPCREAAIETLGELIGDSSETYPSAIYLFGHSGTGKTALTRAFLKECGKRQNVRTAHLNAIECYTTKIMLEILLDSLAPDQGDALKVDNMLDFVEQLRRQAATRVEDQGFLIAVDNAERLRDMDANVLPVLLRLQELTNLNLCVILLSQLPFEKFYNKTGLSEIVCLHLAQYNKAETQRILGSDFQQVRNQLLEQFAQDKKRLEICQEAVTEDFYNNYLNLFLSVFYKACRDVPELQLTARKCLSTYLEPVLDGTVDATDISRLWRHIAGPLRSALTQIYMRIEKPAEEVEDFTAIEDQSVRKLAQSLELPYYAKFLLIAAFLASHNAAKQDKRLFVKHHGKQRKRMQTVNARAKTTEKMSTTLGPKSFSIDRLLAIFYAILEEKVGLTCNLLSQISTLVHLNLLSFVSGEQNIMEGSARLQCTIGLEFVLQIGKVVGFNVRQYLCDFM
T10 sequence (Q9Y1B2 whole entry, chain 4 of 4): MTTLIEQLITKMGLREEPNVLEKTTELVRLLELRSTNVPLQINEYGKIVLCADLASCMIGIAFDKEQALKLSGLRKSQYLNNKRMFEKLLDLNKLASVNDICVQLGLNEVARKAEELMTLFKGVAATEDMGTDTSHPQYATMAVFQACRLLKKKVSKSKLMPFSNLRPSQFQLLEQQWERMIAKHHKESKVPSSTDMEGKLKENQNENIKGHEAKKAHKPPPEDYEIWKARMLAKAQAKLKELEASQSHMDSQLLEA
DmORC delta1IDR holocomplex Orc1:del248-549 (Drosophila melanogaster), sequence (O16810 whole entry, stated change not applied, chain 1 of 4): as the sequence (O16810 whole entry, chain 1 of 4) above
DmORC delta1IDR holocomplex Orc1:del248-549 (Drosophila melanogaster), sequence (Q24168 whole entry, stated change not applied, chain 2 of 4): as the sequence (Q24168 whole entry, chain 2 of 4) above
DmORC delta1IDR holocomplex Orc1:del248-549 (Drosophila melanogaster), sequence (Q24169 whole entry, stated change not applied, chain 3 of 4): as the sequence (Q24169 whole entry, chain 3 of 4) above
DmORC delta1IDR holocomplex Orc1:del248-549 (Drosophila melanogaster), sequence (Q9Y1B2 whole entry, stated change not applied, chain 4 of 4): as the sequence (Q9Y1B2 whole entry, chain 4 of 4) above

| Molecule | Kd [1] | Kd ([2]; 5 mM MgOAc …) [nM] | Kd ([2]; no ATP, 150 mM KGlut, 5 mM MgOAc, severely impaired) [nM] | Kd [3] [nM] | Kd [4] [nM] | Kd [5] [nM] | Kd [6] [nM] | Kd [7] [nM] | Kd [8] [nM] | Kd [9] [nM] | binding result [10] | Kd [11] [nM] | Kd [12] [nM] | Kd [13] [nM] | Kd [14] [nM] | Kd [15] [nM] | Kd [16] [nM] | Kd [17] [nM] |
| --- | --- | --- | --- | --- | --- | --- | --- | --- | --- | --- | --- | --- | --- | --- | --- | --- | --- | --- |
| GAAGCTAGACTTAGGTGTCATATTGAACCTACTATGCCGAACTAGTTACGAGCTATAACC (double strand) [FITC-dsDNA 60 bp] | 6 nM and 34 nM | 19 | > 1000 | 100 | 7 | 100 | 100 | 100 |  |  |  |  |  |  |  |  |  |  |
| B1 |  |  |  |  |  |  |  |  | 15 ± 4 | 21 | binds | 8 ± 2 | < 100 | < 100 | 62 ± 26 | < 100 | < 100 | < 100 |
